Measurements from patent publication US20100297136A1 (NOTTINGHAM TRENT UNIVERSITY, published 2010).

B1: T21:765 peptide (peptide)
peptide: YLIHLLQEL
notes: Synthetic peptide
B2: T21:607 peptide (peptide)
peptide: VIAKFQNKL
notes: Synthetic peptide
B3: T21:660 peptide (peptide)
peptide: SLERLVNAI
notes: Synthetic peptide
B4: T21:656 peptide (peptide)
peptide: LIIPSLERL
notes: Synthetic peptide

Key:
[1] = target: T1, HLA-A2.1 MHC class I on the surface of T2 cells; test: T2 MHC class I stabilisation, flow cytometry with anti HLA-A2.1 mAb, peptide at 10 ug (printed '10 lg'), n = 3
T1 construct: whole, on cells; MHC class I molecule stabilised on T2 cells by added peptide
Description: (§1) 2. CAPABILITY OF T21-DERIVED PEPTIDES TO STABILISE MHC CLASS I ON THE SURFACE OF T2 CELLS. Each of the peptides were then screened in a standard T2 assay to determine their ability to stabilise MHC class I molecules on the surface of T2 cells. In brief, T2 cells were cultured routinely in suspension and when required, resuspended to 4×10⁶ cells/ml. 40 μl of the cell suspension was added to round bottom 96 well plates to give a final cell number of 1.6×10⁵ cells/well. Test peptide was added to the wells in triplicate at concentrations of 100, 10, 1 μg. As a control, T2 cells were also treated with equivalent concentrations of DMSO. Following overnight incubation, cells were harvested into FACS tubes, washed and labelled with anti HLA-A2.1 monoclonal antibody (primary antibody) and FITC conjugated goat IgG F(ab′)₂ anti mouse Ig (secondary antibody). Cells were then analysed using a FACScan spectrofluorometer. (See Table 5 and FIG. 6).
(§2) TABLE 5 Mean T2 binding ratios calculated for the four T21-derived peptides. Mean fluorescence (T2 binding ratio) was calculated by dividing the fluorescence observed for the test peptide by the fluorescence observed for the control (DMSO).

[2] = target: T1, HLA-A2.1 MHC class I on the surface of …; test: T2 MHC class I stabilisation, flow cytometry with anti HLA-A2.1 mAb, peptide at 100 ug (printed '100 lg'), n = 3
Description: as §1, §2

[3] = target: T1, HLA-A2.1 MHC class I on the surface of …; test: T2 MHC class I stabilisation, flow cytometry with anti HLA-A2.1 mAb, peptide at 1 ug (printed '1 lg'), n = 3
Description: as §1, §2

Binder | Mean T2 binding ratio [1] | Mean T2 binding ratio [2] | Mean T2 binding ratio [3]
B1 | 1.11 ratio to DMSO control | 2.86 ratio to DMSO control | 0.955 ratio to DMSO control
B2 | 0.967 ratio to DMSO control | 0.933 ratio to DMSO control | 0.951 ratio to DMSO control
B3 | 0.942 ratio to DMSO control | 0.893 ratio to DMSO control | 0.918 ratio to DMSO control
B4 | 0.928 ratio to DMSO control | 0.921 ratio to DMSO control | 0.955 ratio to DMSO control
